In a protein production outcome set (Wang et al. 2014):

Assay: label from the status in PepcDB records

## MSKAVLTTKVTPGYKDLPEVRYHFPRTYLNQVRQAVGDYILYYEPRRTTVELSSFGGRQSYFGVARVVDLVEDKDQADHYYALVDDYLDFDRPVPFVEGGHYYESALRKSDGSTNKGAFGRAVRLIPDAEFDQIWKAGFAPILGEETSRHQPRQFEISEPTVPFERPIIEMTISRPFRERSFMYNVRAAYENRCAMTGLRLINGGGRPEVQAAHIQPVAEKGPDSVRNGLALSGTVHWMFDRGLISIGDDYKILTAENHVPDDALRLLNHSRTINLPNDTAFYPNALFLKFHRDKIFKG
  protein production: failed

## AELQMLLEEEIPSGKRALIESYQNLTRVADYCENNYIQATDKRKALEETKAYTTQSLASVAYQINALANNVLQLLDIQASQLRRMESSINHISQTVDIHKEKVARREIGILTTNKNTSRTHKIIAPANMERPVRYIRKPIDYTVLDDVGHGVKWLKAKHGNNQPARTGTLSRTN
  protein production: failed

## MQKCSLITVISLSVLMLAGCTTTYTMTTRTGEIIETQGKPEVDTATGMTKYADAYGYHRVIKTSEIVQTTEGASKLDWLEHHHHHH
  protein production: failed

## GHPTEVLCLMNMVLPEELLDDEEYEEIVEDVRDECSKYGLVKSIEIPRPVDGVEVPGCGKIFVEFTSVFDCQKAMQGLTGRKFANRVVVTKYCDPDSYHRRDFW
  protein production: not failed

## MDRGGMKHREGGPGPRTEMSGYSVYEEENERLTENLKMKTSALKSLSIDIGNEVKYHNKMLGEMDSDFDSTGGLLGSTMGRLKILSRGSQAKLLCYMMLFAFFVFFVIYWFIKLR
  protein production: failed

## MKRKISSIIVVGIMLFQSLTMYPFITEAKENEQKEEINKPSKITKGLTNSLKYTKTILETGDTYDSVFPDSALAKVVAKEATGSENTTQLVTQADLNKIKSLNGYNKGISVLTGIDLLVNVTSISLNNNQVTDISPIDQLPNLVSLSVKNNQISSLILNAQNQLPKLTTIDIENNPDLNTIDIQDQPQLVDVKTSGYTGLRKLTTVIAKNNPELVNLGQYTIRNVYFSQVASLTKVELVNLPKVRKVNLERNSINELKVTDLAIEDLPLEENELTDTVFDNIQNLPNLKTLDLSKNQLEEVVLDKTDVENLPNLMTLDIQQNLAIKLINVQDQPQLVDVKTSDYKELSALTTVIAKNNPELVNLGQYTIRNVYFSQVASLTKVELVNLPKVRKVNLERNSINELKVTDLAIEDLPLEENELTDTVFDNIQNLPNLKTLDLSKNQLEEVVLDKTDVENLPNLMTLDIQQNLAIKLINVQDQPQLVDVKTSDYKELSALTTVIAKNNPELVNLGYPIMQNVYFSQVASLTKVELANLPKVRAVRLERNSINQIELNNLVSVKDVNLNTNKITNDSIEKFRGMPILATLNLNKNQITNINMLDGFPQMTTLNIDLNSISVLPSNLKTKMPKLSRISALNQTVTLGKAIVVDDSDLIINNEISNFEKLTEPSPISNFGTYANEKITWSSERIKNLTEVSFQFSELINVTGIDGTFSGKVTQPFKRSTTPVINADSEIHYPQGTEKTEAEFLKDVQAQTTDDLAIKSDFETMVNLKKVGKYTVTLNVENLDGIKATPKEVIVYIDAVQGANITVKYEDESGNKLAENSILTGNVGEEYSSSAKEILGYTLTEMPSNAQGEFSLEEQTVTYIYSKNPVPAKDITVQYTDEDGMELAPTETLSGNVDENYVTTAKTFTGYELIETPSNAEGKFSENAQTVTYVYRAIKAEPILAKEVTVNYQDELGAKISETEVLTGEIGETYTTVAKTIDGYTLIKSPTNANGIFNENPQTVTYVYQLQNSPIAANITVKHLDENNNELAPSEVLSGNVDEAYTTKPKEIKDYSLVKVPTNASGKFTTEAQTVIYHYKKNSIPTSSYITVKYVDETGKELAISKVLNGNINDSYATTAKEIKGYTLVQKPANATGKFTDQNQTIKYVYRANKAEVNPNPNSDVLGSNSNGDIQPTNDIKPTNDVQPTNEAPQTLPKTGSQPANLIFGLGILLVLLSTQWLHRNKRKKAKSHNC
  protein production: failed

## MRDYSELEIFEGNPLDKWNDIIFHASKKLSKKELERLLELLALLETFIEKEDLEEKFESFAKALRIDEELQQKIESRKTDIVIQSMANILSGNE
  protein production: not failed

## MTLFAEYNSPYLFAIAFVFFIGVLEMISLIFGHFLSGALDAHLDHYDALSSGPAGQALHYLNIGRVPALVVLCLLAGYFGLFGILIQHGGIMLWQAPLSNLLLVPLSIVLSVFAVHYSGKILAPWLPRDESSALREEEFIGGMAIITGHAAVAGTPCEGKFTDKFGQIHYLLLEPEKGKEFKKGDKVLIICRLSATRYLAERTFYV
  protein production: failed
